From paper PMC5338925, “Human Nup98 regulates the localization and activity of DExH/D-box helicase DHX9” (eLife, 2017)
Blank lines part the entries; values can stand above or below the molecule they belong to.

Key:
GST-DHX9 (human) = GST-DHX9 (human) (UniProt Q08211)
GST-Nup98^1–863 = molecular target: T1, GST-Nup98^1–863 (human, UniProt P52948-4 1-863); experiment: bead halo assay; GST-Nup98 1-863 held on glutathione magnetic agarose beads (bait); DHX9 domains with C-terminal eGFP (prey) detected by fluorescence microscopy; PBS-T, 10 min, 4 °C; pre-treated with RNase A, poly I:C RNA or buffer alone; conditions: both partners purified
T1 construct: Nup98, human, residues 1-863; Held on glutathione magnetic agarose beads by its GST; also called GST-Nup98 (bead halo bait); source: purified recombinant protein (E. coli BL21-CodonPlus(DE3), glutathione-Sepharose 4B)
T1 sequence (looked up): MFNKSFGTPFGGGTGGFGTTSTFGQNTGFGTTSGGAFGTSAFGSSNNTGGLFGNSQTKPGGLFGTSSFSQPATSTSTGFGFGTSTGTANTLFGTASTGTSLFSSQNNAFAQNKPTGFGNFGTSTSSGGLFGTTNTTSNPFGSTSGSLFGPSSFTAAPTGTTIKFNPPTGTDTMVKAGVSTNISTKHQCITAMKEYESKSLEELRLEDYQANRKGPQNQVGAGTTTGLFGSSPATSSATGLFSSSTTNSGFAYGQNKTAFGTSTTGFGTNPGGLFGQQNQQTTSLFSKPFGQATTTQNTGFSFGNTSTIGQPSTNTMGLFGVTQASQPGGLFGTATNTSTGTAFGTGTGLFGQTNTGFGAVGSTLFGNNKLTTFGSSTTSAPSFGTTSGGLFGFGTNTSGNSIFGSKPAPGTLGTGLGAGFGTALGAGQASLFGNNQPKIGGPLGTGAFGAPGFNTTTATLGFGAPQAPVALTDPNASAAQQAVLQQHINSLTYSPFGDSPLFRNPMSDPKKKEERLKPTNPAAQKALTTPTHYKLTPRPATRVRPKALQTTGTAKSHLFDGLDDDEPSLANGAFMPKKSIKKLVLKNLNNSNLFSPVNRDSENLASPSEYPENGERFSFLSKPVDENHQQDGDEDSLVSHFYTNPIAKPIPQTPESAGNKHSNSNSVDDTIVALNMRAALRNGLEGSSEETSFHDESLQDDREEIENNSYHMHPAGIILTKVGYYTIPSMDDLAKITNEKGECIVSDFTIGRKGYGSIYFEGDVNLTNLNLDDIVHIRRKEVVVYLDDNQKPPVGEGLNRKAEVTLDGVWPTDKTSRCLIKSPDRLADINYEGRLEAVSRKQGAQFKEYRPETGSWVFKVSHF

ATPase activity (ATP hydrolysis rate) of GST-DHX9 with excess RNA (poly I:C) and increasing concentrations of GST-Nup98 (GST-DHX9 (human)): 5 fold
Molecule: GST-Nup98^1–920 (from UniProt P52948-4 1-920) (natural protein)

binding result (GST-Nup98^1–863): binds
B1: DHX9 821–1270 tagged with eGFP (domain or fragment, human, UniProt Q08211 821-1270, looked up)
chain: IEPPPLDAVIEAEHTLRELDALDANDELTPLGRILAKLPIEPRFGKMMIMGCIFYVGDAICTIAAATCFPEPFINEGKRLGYIHRNFAGNRFSDHVALLSVFQAWDDARMGGEEAEIRFCEHKRLNMATLRMTWEAKVQLKEILINSGFPEDCLLTQVFTNTGPDNNLDVVISLLAFGVYPNVCYHKEKRKILTTEGRNALIHKSSVNCPFSSQDMKYPSPFFVFGEKIRTRAISAKGMTLVTPLQLLLFASKKVQSDGQIVLVDDWIKLQISHEAAACITGLRAAMEALVVEVTKQPAIISQLDPVNERMLNMIRQISRPSAAGINLMIGSTRYGDGPRPPKMARYDNGSGYRRGGSSYSGGGYGGGYSSGGYGSGGYGGSANSFRAGYGAGVGGGYRGVSRGGFRGNSGGDYRGPSGGYRGSGGFQRGGGRGAYGTGYFGQGRGGGGY
notes: also called C-terminal segment (residues 821–1270); C-terminal domain of DHX9-GFP; source: purified recombinant protein; not shown: eGFP, C-terminal, kept

binding result (GST-Nup98^1–863): binds
B2: DHX9 1–380 tagged with eGFP (domain or fragment, human, UniProt Q08211 1-380, looked up)
chain: MGDVKNFLYAWCGKRKMTPSYEIRAVGNKNRQKFMCEVQVEGYNYTGMGNSTNKKDAQSNAARDFVNYLVRINEIKSEEVPAFGVASPPPLTDTPDTTANAEGDLPTTMGGPLPPHLALKAENNSEVGASGYGVPGPTWDRGANLKDYYSRKEEQEVQATLESEEVDLNAGLHGNWTLENAKARLNQYFQKEKIQGEYKYTQVGPDHNRSFIAEMTIYIKQLGRRIFAREHGSNKKLAAQSCALSLVRQLYHLGVVEAYSGLTKKKEGETVEPYKVNLSQDLEHQLQNIIQELNLEILPPPEDPSVPVALNIGKLAQFEPSQRQNQVGVVPWSPPQSNWNPWTSSNIDEGPLAFATPEQISMDLKNELMYQLEQDHDLQA
notes: also called N-terminal region (residues 1–380); N-terminal domain of DHX9-GFP; source: purified recombinant protein; not shown: eGFP, C-terminal, kept
